Results reported in publication PMC2859543.

B1: His6-tagged Tup11 (natural protein)
chain: MASVEDATKVQEMLDALKAEYNALAHHSFASKARGNDYESSMIQSQIQEIEAFRKTVDDMYEKQKSIRETYEKDINKLKRELEELGVEANTASYRNRGERSELAASNNQVTHIDQEHPSQTKSTSQPPSNHLPAFQQIPPIHQSAYPQNNVAEVLMPPIPPSVEASSGQNFNQGIASQNPAISTSNLPSTTPLYIPPVNYGANQVSQQPNPQLPGVSNYYNPSATSKPAVNVQPPRIPTKATPSAEPSMTASANAGSISQAGPDGEYQGREQIAPVSDTEAARKTTSQSWYVTYNPACKRVFNINLVHTLEHPSVVCCVKFSNNGKYLATGCNQAANVFDVQTGKKLFTLHEESPDPSRDLYVRTIAFSPDGKYLVTGTEDRQIKLWDLSTQKVRYVFSGHEQDIYSLDFSHNGRFIVSGSGDRTARLWDVETGQCILKLEIENGVTAIAISPNDQFIAVGSLDQIIRVWSVSGTLVERLEGHKESVYSIAFSPDSSILLSGSLDKTIKVWELQATRSVGLSAIKPEGICKATYTGHTDFVLSVAVSPDSRWGLSGSKDRSMQFWDLQTGQSYLTCQGHKNSVISVCFSPDGRQFASGSGDLRARIWSIDPASP
B2: His6-tagged Tup12 (natural protein)
chain: MATSNVSSRVNELLEAVKKEFEDICQKTKTVEAQKDDFEYKAMISAQINEMALMKQTVMDLEMQQSKVKDRYEEEITSLKAQLEARRKEIASGVVPQSSKTKHGRNSVSFGKYGNAGPFNSDNSSKPLILNNGSSGGTPKNLRSPAIDSDGTVLAPIQTSNVDLGSQYYSSPHVRPAVGATMAGSAMRTFPSNLPLGHPPPPSDSANSSVTPIAAPLVVNGKVSGNPPYPAEIIPTSNVPNREEKDWTVTSNVPNKEPPISVQLLHTLEHTSVICYVRFSADGKFLATGCNRAAMVFNVETGKLITLLQEESSKREGDLYVRSVAFSPDGKYLATGVEDQQIRIWDIAQKRVYRLLTGHEQEIYSLDFSKDGKTLVSGSGDRTVCLWDVEAGEQKLILHTDDGVTTVMFSPDGQFIAAGSLDKVIRIWTSSGTLVEQLHGHEESVYSVAFSPDGKYLVSGSLDNTIKLWELQCVSNVAPSMYKEGGICKQTFTGHKDFILSVTVSPDGKWIISGSKDRTIQFWSPDSPHSQLTLQGHNNSVISVAVSPNGHCFATGSGDLRARIWSYEDL

Molecular target: GST-cLkh1^ΔLA (LAMMER motif-deleted Lkh1 catalytic domain) (S. pombe)
Test: pull-down

Binder | percent of the substrate-binding activity of GST-cLkh1 and GST-cLkh1^K391R
B1 | 30%
B2 | 30%
